In paper PMC7163869 one finds Kd data, which are given here for two molecules.

Broadly, the Kd is the equilibrium constant for the complex coming apart.

The target of the experiment is Chikungunya virus-like particles (strain 37997) (chikungunya virus (strain 37997)). As to the kind of experiment: BLI. Background: BLI is a label-free optical method that tracks binding on a fibre tip over time.

With “Mouse Mxra8 ectodomain 23-296 (from UniProt Q9DBV4 23-296) (domain or fragment)”, the Kd worked out at 66.4 nM.

B1: Cattle Δmoo Mxra8 ectodomain (domain or fragment)
chain: VLLSSGPSGPATSDRSVVSESTVSWAAGARAVLRCQSPRMVWTQDRLHDRQRVVHWDLSGSKAGGPARRLVDMYSTGEQRVYEPRDRGRLLLPPSAFHDGNFSLFIRAVEETDEGLYTCNLHHHYCHLYESLAVSLEVTDDPRAAGAHWDGEKEVLAVERGAPALLTCVNRAHVWTDRHLEEAQQVVHWDRQPPGVPHDRADRLLDLYASGERRAYGPPFLRDRVAVEADAFARGDFSLLIDPVEPADEGTYSCHLHHHYCGLHERRVFHLRVTEPAARPPPPPRDSPGNGSSHSGAPGPGARDPTLTRGRSVINVIVPEGRAHFFQQ
The molecule B1 registered a Kd of 72.3 nM.
